Consider one molecule from publication doi:10.1101/2023.12.03.569830 (bioRxiv, 2023).

The target of this assay is T1, surface-exposed domain of TraN (TraN^surf), N-terminal hexa-histidine tag (Salmonella enterica serovar Typhimurium …).
T1 chain: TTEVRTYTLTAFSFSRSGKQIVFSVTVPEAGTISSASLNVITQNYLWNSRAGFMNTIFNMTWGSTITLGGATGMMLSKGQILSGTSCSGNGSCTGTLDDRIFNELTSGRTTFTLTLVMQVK
The experiment in a line: ITC.

As usually defined, the Kd is the concentration at which binding is half-saturated. A lower Kd goes with higher affinity.

B1: Nb^traN (TraN-specific nanobody), C-terminal hexa-histidine tag (VHH)
VHH: QVQLQESGGGLVQAGGSLRLSCAASGTIFDGVDMGWYRQAPGKEREFVAGITAGSSTYYADSVKGRFTISRDNAKNTVYLQMNSLKPEDTAVYYCAAYPLDEIGSHDPHSYWGQGTQVTVSS
B1: the Kd is 4.45 µM.
